Assay results: US20250361544A1, “TYPE III-D CRISPR-CAS SYSTEM AND USES THEREOF” (BOARD OF REGENTS, THE UNIVERSITY OF TEXAS SYSTEM, published 2025)

Legend:
[1] = target: T1, Type III-Dv subunits co-expressed without Csx19 (Cas7-Cas5-Cas11, Cas7-2x and Cas7-insertion, with crRNA) (Synechocystis sp. PCC 6803); assay: His-tag affinity purification and SEC of the ΔCsx19 co-expression; SDS-PAGE
T1 construct: These are the subunits left beside His-tagged Cas10 when csx19 carries a nonsense mutation (pPF3089); they are grouped here only as the prey set of the ΔCsx19 pulldown; also called ΔCsx19 complex; ΔCsx19 type Type III-Dv complex
T1 sequence (chain, as listed by the source limits assumed, chain 1 of 3): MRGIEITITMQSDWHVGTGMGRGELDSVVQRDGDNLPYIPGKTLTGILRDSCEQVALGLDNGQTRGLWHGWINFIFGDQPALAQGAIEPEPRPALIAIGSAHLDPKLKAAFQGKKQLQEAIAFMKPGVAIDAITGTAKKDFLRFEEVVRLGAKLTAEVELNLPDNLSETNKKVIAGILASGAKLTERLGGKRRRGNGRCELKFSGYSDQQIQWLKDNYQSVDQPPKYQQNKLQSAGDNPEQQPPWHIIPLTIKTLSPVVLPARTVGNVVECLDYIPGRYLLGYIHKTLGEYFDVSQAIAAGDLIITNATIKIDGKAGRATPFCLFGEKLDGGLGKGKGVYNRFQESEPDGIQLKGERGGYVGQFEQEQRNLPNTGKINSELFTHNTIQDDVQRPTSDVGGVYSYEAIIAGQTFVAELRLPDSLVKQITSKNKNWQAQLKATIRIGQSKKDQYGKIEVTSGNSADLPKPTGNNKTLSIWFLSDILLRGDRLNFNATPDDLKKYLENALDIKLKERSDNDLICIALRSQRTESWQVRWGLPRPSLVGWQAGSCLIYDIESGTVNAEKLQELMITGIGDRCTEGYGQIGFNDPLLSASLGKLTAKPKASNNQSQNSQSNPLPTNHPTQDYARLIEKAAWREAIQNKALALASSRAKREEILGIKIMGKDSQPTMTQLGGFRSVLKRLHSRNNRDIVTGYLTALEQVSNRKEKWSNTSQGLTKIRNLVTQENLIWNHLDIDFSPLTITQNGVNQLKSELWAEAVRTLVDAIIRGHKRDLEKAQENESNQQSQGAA
T1 sequence (chain, as listed by the source limits assumed, chain 2 of 3): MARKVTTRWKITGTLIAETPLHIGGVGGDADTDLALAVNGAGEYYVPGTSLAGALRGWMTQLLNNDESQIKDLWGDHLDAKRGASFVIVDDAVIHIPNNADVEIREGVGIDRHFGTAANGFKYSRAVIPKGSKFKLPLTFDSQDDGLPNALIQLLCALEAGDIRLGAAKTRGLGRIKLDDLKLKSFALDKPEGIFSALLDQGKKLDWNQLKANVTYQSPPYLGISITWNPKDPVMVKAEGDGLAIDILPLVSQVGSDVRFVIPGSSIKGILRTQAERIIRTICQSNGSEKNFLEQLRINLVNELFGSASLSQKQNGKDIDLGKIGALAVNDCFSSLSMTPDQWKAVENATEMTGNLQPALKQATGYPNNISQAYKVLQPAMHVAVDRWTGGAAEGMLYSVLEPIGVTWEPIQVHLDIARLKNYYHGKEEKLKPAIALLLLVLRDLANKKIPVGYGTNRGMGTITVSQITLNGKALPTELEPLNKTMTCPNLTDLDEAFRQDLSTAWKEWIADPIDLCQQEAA
T1 sequence (chain, as listed by the source limits assumed, chain 3 of 3): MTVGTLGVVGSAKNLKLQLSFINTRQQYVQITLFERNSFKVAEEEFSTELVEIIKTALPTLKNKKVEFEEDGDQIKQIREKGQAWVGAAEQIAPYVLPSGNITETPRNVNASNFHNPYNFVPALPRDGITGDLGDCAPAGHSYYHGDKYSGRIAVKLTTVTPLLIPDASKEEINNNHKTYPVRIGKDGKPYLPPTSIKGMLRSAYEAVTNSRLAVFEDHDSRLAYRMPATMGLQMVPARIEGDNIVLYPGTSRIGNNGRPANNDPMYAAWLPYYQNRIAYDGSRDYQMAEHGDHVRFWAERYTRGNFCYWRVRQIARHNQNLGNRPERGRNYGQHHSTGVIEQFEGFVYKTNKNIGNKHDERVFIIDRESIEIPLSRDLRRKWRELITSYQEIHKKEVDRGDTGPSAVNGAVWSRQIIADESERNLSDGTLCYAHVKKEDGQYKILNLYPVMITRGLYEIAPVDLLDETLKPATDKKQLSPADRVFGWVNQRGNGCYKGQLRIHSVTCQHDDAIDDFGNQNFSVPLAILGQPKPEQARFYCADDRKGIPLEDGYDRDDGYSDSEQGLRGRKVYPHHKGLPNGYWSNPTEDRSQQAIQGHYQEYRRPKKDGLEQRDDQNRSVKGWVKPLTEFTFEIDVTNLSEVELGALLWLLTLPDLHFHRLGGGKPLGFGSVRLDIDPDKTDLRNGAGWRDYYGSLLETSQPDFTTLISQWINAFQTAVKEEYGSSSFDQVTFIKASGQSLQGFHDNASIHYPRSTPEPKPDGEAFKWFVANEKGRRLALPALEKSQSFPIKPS

[2] = target: T2, Cas6-2a of Synechocystis sp. PCC 6803 (Synechocystis sp. PCC 6803); assay: metal affinity (His6-Cas10) and size-exclusion co-purification from E. coli; SDS-PAGE and mass spectrometry
T2 construct: The Results say cas6-2a was cloned and expressed with the operon
T2 chain: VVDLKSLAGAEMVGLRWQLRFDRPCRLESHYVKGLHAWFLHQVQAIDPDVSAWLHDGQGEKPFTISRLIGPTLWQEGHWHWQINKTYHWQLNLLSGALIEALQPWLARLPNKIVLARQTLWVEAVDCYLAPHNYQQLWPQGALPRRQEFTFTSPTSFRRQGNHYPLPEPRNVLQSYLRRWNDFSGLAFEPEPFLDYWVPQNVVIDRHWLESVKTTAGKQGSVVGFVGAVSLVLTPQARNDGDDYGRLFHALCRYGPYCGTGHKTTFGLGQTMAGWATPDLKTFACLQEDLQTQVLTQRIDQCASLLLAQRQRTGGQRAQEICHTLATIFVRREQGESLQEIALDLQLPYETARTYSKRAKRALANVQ
Method: The sample was applied to a second HisTrap column; however, due to inefficient TEV cleavage, the complex unexpectedly bound the column and eluted with high imidazole. The complex was further purified by size exclusion chromatography (SEC) on a HiLoad 16/600 Superdex 200 column (GE Healthcare) equilibrated in SEC Buffer). Mutant Type III-Dv complexes were similarly expressed and purified, except TEV protease was omitted. Purified complexes were typically concentrated to 1.5 mg/ml using a centrifugal concentrator (Amicon; 100 kDa MWCO), aliquoted, and stored at −80° C.
Denaturing liquid chromatography mass spectrometry (LC-MS) was performed on a Dionex UltiMate 3000 nanoLC system coupled to a Thermo Orbitrap Fusion Lumos Tribrid mass spectrometer (San Jose, Ca). The trap column (3 cm) and analytical column (30 cm) were packed in-house with polymer reverse-phase (PLRP) packing material. Approximately 80 ng of the CRISPR complex were injected and subjected to reverse-phase chromatography, utilizing water with 0.1% formic acid as mobile phase A (MPA), and acetonitrile with 0.1% formic acid as mobile phase B (MPB). Forward trapping occurred for 5 minutes at 2% MPB at a flow rate of 5 μL/min at the trap column. Elution onto the analytical column (at 0.3 μL/min) occurred by increasing MPB to 10% over a 3-minute gradient followed by an increase to 35% MPB over 32 minutes. […]

B1: Cas10 subunit of the Synechocystis sp. PCC 6803 Type III-Dv CRISPR-Cas complex, with N-terminal His6 tag and TEV site (other)
chain: MFLVLIETSGNQHFIFSTNKLRENIGASELTYLATTEILFQGVDRVFQTNYYDQWSDTNSLNFLADSKLNPAIDDPKNNADIEILLATSGKAIALVKEEGKAKQLIKEVTKQALINAPGLEIGGIYVNCNWQDKLGVAKAVKEAHKQFEVNRAKRAGANGRFLRLPIAAGCSVSELPASDFDYNADGDKIPVSTVSKVKRETAKSAKKRLRSVDGRLVNDLAQLEKSFDELDWLAVVHADGNGLGQILLSLEKYIGEQTNRNYIDKYRRLSLALDNCTINAFKMAIAVFKEDSKKIDLPIVPLILGGDDLTVICRGDYALEFTREFLEAFEGQTETHDDIKVIAQKAFGVDRLSACAGISIIKPHFPFSVAYTLAERLIKSAKEVKQKVTVTNSSPITPFPCSAIDFHILYDSSGIDFDRIREKLRPEDNTELYNRPYVVTAAENLSQAQGYEWSQAHSLQTLADRVSYLRSEDGEGKSALPSSQSHALRTALYLEKNEADAQYSLISQRYKILKNFAEDGENKSLFHLENGKYVTRFLDALDAKDFFANANHKNQGE
notes: Whole gene amplified from Synechocystis genomic DNA and co-expressed in E. coli from pPF2434; The complex also holds a 37-nt crRNA; also called His6-TEV-Cas10; N-His6-tagged Cas10; not shown: TEV cleavage was inefficient, so
B1: no binding [1]; no binding [2].
